According to patent US20260234242A1 (HAINAN SIMCERE ZAIMING PHARMACEUTICAL, published 2026):
Substitutions are numbered along the chain they refer to.

T1: human CDH6 on tumor cells (OVCAR3 cells, PA-1 cells) (human, UniProt P55285 54-790)
T1 sequence: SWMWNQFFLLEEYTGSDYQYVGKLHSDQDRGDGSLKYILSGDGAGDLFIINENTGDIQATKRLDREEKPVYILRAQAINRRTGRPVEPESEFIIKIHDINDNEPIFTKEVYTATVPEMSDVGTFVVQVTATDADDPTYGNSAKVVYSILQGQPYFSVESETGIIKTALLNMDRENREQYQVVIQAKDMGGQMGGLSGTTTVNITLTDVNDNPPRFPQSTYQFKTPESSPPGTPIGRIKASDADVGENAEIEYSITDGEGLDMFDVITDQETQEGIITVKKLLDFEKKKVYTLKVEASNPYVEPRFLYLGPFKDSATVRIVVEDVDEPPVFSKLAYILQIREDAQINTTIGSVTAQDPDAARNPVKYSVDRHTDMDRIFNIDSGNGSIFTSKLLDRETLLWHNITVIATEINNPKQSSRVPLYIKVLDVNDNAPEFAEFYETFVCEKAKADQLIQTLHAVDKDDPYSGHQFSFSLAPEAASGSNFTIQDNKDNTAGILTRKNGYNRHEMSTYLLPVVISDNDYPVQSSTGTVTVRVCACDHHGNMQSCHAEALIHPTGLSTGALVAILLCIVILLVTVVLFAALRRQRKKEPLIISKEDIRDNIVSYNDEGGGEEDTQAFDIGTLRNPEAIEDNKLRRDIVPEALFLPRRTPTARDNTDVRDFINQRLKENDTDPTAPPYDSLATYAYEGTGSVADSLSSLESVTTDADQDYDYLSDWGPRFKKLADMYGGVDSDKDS

T2: his-tagged human CDH6 extracellular region protein (hCDH6 ECD-his) (human, UniProt P55285 19-615)
T2 construct: also called Human CDH6-his; hCDH6-his; not shown: his tag
T2 sequence: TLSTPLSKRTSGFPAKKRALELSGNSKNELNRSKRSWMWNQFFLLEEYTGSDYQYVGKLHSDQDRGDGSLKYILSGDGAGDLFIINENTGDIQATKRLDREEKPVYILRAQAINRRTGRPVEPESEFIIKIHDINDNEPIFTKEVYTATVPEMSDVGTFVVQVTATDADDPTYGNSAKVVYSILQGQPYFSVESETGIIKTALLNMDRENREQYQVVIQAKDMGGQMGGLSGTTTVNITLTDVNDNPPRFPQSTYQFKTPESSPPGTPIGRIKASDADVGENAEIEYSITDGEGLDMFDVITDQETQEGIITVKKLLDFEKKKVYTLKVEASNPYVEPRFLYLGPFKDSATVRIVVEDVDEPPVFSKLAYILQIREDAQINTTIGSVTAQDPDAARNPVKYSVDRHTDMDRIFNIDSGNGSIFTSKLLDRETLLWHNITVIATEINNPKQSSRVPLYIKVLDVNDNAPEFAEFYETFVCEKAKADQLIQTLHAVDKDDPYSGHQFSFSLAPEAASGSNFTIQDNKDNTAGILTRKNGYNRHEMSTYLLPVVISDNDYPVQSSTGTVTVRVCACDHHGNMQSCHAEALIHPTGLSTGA

B1: hCDH6-14-H4L2 (antibody, V domains shown)
VH: EVQLVQSGAEVKKPGASVKVSCKASGYTFTDNYINWVRQAPGQGLEWMGWIYPGTGNSYYNEKFKGRVTITVDTSASTAYMELSSLRSEDTAVYYCASSYGDSFDYWGQGTTVTVSS
VL: DIQMTQSPSSLSASVGDRVTITCRASQDIRNYLNWYQQKPGGAPKLLISYTSRLHSGVPSRFSGSGSGTDFTFTISSLQPEDIATYYCQQYSQLPWTFGGGTKVEIK
notes: Humanized
B2: hCDH6-14-H1L3 (antibody, V domains shown)
VH: B1 VH with G44R
VL: DIVMTQSPDSLAVSLGERATINCRASQDIRNYLNWYQQKPGQTPKLLISYTSRLHSGVPDRFSGSGSGTDFTLTISSLQAEDVAVYYCQQYSQLPWTFGGGTKVEIK
notes: Humanized
B3: hCDH6-14-H5L1 (antibody, V domains shown)
VH: B1 VH with V5Q, G44R
VL: B1 VL with G42K, P44F
notes: Humanized
B4: hCDH6-14-H5L3 (antibody, V domains shown)
VH: B1 VH with V5Q, G44R
VL: B2 VL
notes: Humanized
B5: hCDH6-14-H4L3 (antibody, V domains shown)
VH: B1 VH
VL: B2 VL
notes: Humanized
B6: hCDH6-14-H2L3 (antibody, V domains shown)
VH: B1 VH with V2I, G44R
VL: B2 VL
notes: Humanized
B7: hCDH6-14-H6L2 (antibody, V domains shown)
VH: B1 VH with G44R, Y95L
VL: B1 VL
notes: Humanized
B8: hCDH6-14-H3L3 (antibody, V domains shown)
VH: B1 VH with V2I, G44R, I70L
VL: B2 VL
notes: Humanized
B9: hCDH6-14-H6L1 (antibody, V domains shown)
VH: B1 VH with G44R, Y95L
VL: B1 VL with G42K, P44F
notes: Humanized
B10: hCDH6-14-H5L2 (antibody, V domains shown)
VH: B1 VH with V5Q, G44R
VL: B1 VL
notes: Humanized
B11: hCDH6-6-H1L3 (antibody, V domains shown)
VH: EVQLVQSGAEVKKPGASVKVSCKASGYTFTDYYMAWVRQAPGQGLEWMGYIFPNSGGTDYSQKFKGRVTMTVDKSTSTVYMELSSLRSEDTAVYYCARELGADYGDYYAMDHWGQGTTVTVSS
VL: DIQMTQSPSSLSASVGDRVTITCRASENIDSYLAWYQQKPGKSPQLLVYSATLLADGVPSRFSGSGSGTDYTLTISSLQPEDFATYYCQHYYRTPPTFGQGTKLEIK
notes: Humanized
B12: hCDH6-6-H1L4 (antibody, V domains shown)
VH: B11 VH
VL: B11 VL with Q45K, T85R
notes: Humanized; also called hCDH6-6-HIL4
B13: hCDH6-6-H2L3 (antibody, V domains shown)
VH: B11 VH with M70L
VL: B11 VL
notes: Humanized
B14: hCDH6-6-H2L4 (antibody, V domains shown)
VH: B11 VH with M70L
VL: B11 VL with Q45K, T85R
notes: Humanized

molecular target: T1, human CDH6 on tumor cells (OVCAR3 …); test: FACS, PA-1 cells
Method: (§1) OVCAR3 cells with high expression of CDH6 and PA-1 cells with moderate expression of CDH6 were used to detect the binding activity of the antibodies to the cells. […] The cells were washed once with PBS, counted, resuspended to 2×10⁶ cells/mL in an FACS buffer (PBS+2% FBS), and then added to a 96-well plate at 50 μL/well. The chimeric antibodies were diluted with FACS buffer (PBS+2% FBS) and added to the 96-well plate at 50 μL/well, and the plate was incubated at 4° C. for 1 h. […] The dilution was added to the 96-well plate at 50 μL/well, and the plate was incubated at 4° C. for 1 h. After the plates were centrifuged and washed 2 times with PBS, the cells were resuspended in an FACS buffer. The mean fluorescence intensity (MFI) was measured using FACS Canton II (BD). Analysis was performed by the GraphPad Prism software, data were fitted, and EC50 values were calculated. The chimeric antibodies tested had strong binding to both OVCAR3 cells and PA-1 cells.
(§2) According to the above sequences, heavy chain (HC) and light chain (LC) plasmids were constructed (the nucleic acid sequences encoding the VH and VL of the antibodies were recombined into an expression vector carrying a signal peptide (SEQ ID NO: 132, […]) and a heavy chain constant region/light chain constant region sequence to obtain recombinant plasmids expressing VH-CH1-Fc/VL-CL). According to the expression and purification methods in Example 2, the hCDH6-14 humanized antibodies were obtained, and the binding activity of the humanized antibodies was detected by ELISA and FACS (see 2.2 and 2.3 for the method).

For B1, which EC50 is on record?
The EC50 was 0.26 nM.

And the “Max MFI” value?
Its value is 3570 MFI.

What does the source list for B2?
EC50: 0.27 nM; Max MFI: 3580 MFI

What does the source list for B3?
EC50: 0.25 nM; Max MFI: 3780 MFI

How did the EC50 turn out when B4 was run?
Its EC50 is 0.21 nM.

And the “Max MFI” value?
Its value is 3600 MFI.

For B5, which EC50 is on record?
The EC50 was 0.27 nM.

What about the “Max MFI” value of the same binder?
The value was 3870 MFI.

Which results are given for B6?
EC50: 0.22 nM; Max MFI: 3780 MFI

Which EC50 does the source give for B7 here?
The EC50 was 0.26 nM.

What about the “Max MFI” value of the same binder?
The value was 3540 MFI.

Which EC50 does the source give for B8 here?
The EC50 was 0.19 nM.

And the “Max MFI” value?
Its value is 3470 MFI.

With B9 as the binder, how does the EC50 read?
The EC50 was 0.24 nM.

And the “Max MFI” value?
The value was 3700 MFI.

Which results are given for B10?
EC50: 0.23 nM; Max MFI: 3320 MFI

molecular target: T1, human CDH6 on tumor cells (OVCAR3 …); test: FACS, OVCAR3 cells
Method: as §1
as §2, with “VH—CH1-Fc/VL-CL).” for “VH-CH1-Fc/VL-CL).”, “hCDH6-6” for “hCDH6-14”

With B11 as the binder, how does the EC50 read?
Its EC50 is 0.63 nM.

And the “Max MFI” value?
The value was 13800 MFI.

Which results are given for B12?
EC50: 0.64 nM; Max MFI: 14400 MFI

What does the source list for B13?
EC50: 0.57 nM; Max MFI: 14100 MFI

B14 was tested. Which EC50 did it give?
Its EC50 is 0.62 nM.

What about the “Max MFI” value of the same binder?
Its value is 14300 MFI.

molecular target: T2, his-tagged human CDH6 extracellular …; test: ELISA, coated antigen
Method: (§3) Human CDH6 protein (hCDH6 ECD-his, conventionally synthesized), monkey CDH6 protein (cynoCDH6 ECD-his, conventionally synthesized; the cynoCDH6 ECD sequence was derived from Uniprot #A0A2K5TW62 (19-615)), and murine CDH6 protein (mCDH6 ECD-his, conventionally synthesized; the mCDH6 ECD sequence was derived from Uniprot #P97326 (19-615)) were diluted with PBS to a final concentration of 1 μg/mL, and added to a 96-well ELISA plate at 100 μL/well. The plate was incubated at 4° C. overnight. The next day, the plate was washed 3 times with a plate washing solution (PBS+0.01% (v/v) Tween 20), and a blocking buffer (PBS+0.01% (v/v) Tween 20+2% (w/w) BSA) was added for blocking at room temperature for 2 h. The blocking buffer was discarded, and the plate was washed 3 times. The chimeric antibodies were diluted with 1% BSA+PBS (purchased from Cytiva, Cat. No. SH30264.01) and added to the 96-well plate at 50 μL/well. After incubation at 37° C. for 2 h, the plate was washed 3 times with a plate washing solution. […] The plate was incubated at 37° C. for 1 h and then washed 5 times with a plate washing solution. A TMB substrate (purchased from Seracare, Cat. No. 5120-0077) was added at 50 μL/well and incubated at room temperature for 10 min, then a stop solution (1.0 N HCl) was added at 50 μL/well. OD450 nm values were read using a microplate reader (Biotek). Analysis was performed by the GraphPad Prism software, data were fitted, and EC50 values were calculated. The chimeric antibodies tested all had strong binding to the human CDH6 protein, the monkey CDH6 protein, and the murine CDH6 protein.
(§4) According to the above sequences, heavy chain (HC) and light chain (LC) plasmids were constructed (the nucleic acid sequences encoding the VH and VL of the antibodies were recombined into an expression vector carrying a signal peptide (SEQ ID NO: 132, […]) and a heavy chain constant region/light chain constant region sequence to obtain recombinant plasmids expressing VH-CH1-Fc/VL-CL).

Which results are given for B1?
EC50: 0.089 nM; Max OD450: 2.64 OD450

Which results are given for B2?
EC50: 0.056 nM; Max OD450: 2.68 OD450

With B3 as the binder, how does the EC50 read?
Its EC50 is 0.079 nM.

What about the “Max OD450” value of the same binder?
Its value is 2.81 OD450.

How did the EC50 turn out when B4 was run?
The EC50 was 0.092 nM.

And the “Max OD450” value?
The value was 2.72 OD450.

Which results are given for B5?
EC50: 0.084 nM; Max OD450: 2.67 OD450

What does the source list for B6?
EC50: 0.09 nM; Max OD450: 2.48 OD450

How did the EC50 turn out when B7 was run?
Its EC50 is 0.093 nM.

What about the “Max OD450” value of the same binder?
Its value is 2.62 OD450.

What does the source list for B8?
EC50: 0.113 nM; Max OD450: 2.56 OD450

What does the source list for B9?
EC50: 0.067 nM; Max OD450: 2.7 OD450

What does the source list for B10?
EC50: 0.109 nM; Max OD450: 2.58 OD450

molecular target: T2, his-tagged human CDH6 extracellular …; test: ELISA, coated antigen; remark: another data set of the same source
Method: as §3
as §4, with “VH—CH1-Fc/VL-CL).” for “VH-CH1-Fc/VL-CL).”

How did the EC50 turn out when B11 was run?
The EC50 was 0.031 nM.

And the “Max OD450” value?
The value was 1.99 OD450.

What does the source list for B12?
EC50: 0.021 nM; Max OD450: 2.16 OD450

Which EC50 does the source give for B13 here?
Its EC50 is 0.025 nM.

And the “Max OD450” value?
The value was 2.09 OD450.

For B14, which EC50 is on record?
The EC50 was 0.029 nM.

And the “Max OD450” value?
Its value is 2.14 OD450.
